Data reported in patent publication US12286461B2, “Recombinant fused polypeptide and use thereof” (priority 2019, dated 2025).

Tests used:
protozoa = assay: Mouse pneumonia model, protozoal pneumonia; assay type: in vivo; settings: BALB/C mouse pneumonia model, nasal drip; average ± standard deviation
Source text: (§1) A mouse pneumonia model was successfully established by using a nasal drip method. BALB/C mice with a body weight of 18-24 g were selected, and then anesthetized with ether on day 0, day 1 and day 2, respectively, prepared Streptococcus pneumoniae bacteria solution, adenovirus concentrated solution, Mycoplasma pneumoniae, Chlamydia pneumoniae, protozoa and pneumonia fungi were slowly dropped into the nasal cavity of the mice, so that the bacteria solutions entered the trachea and bronchi, and the bacteria solutions were prevented from flowing into the esophagus during the operation to avoid inactivation of the bacteria solutions, so that the mouse pneumonia model was established. After the model was successfully established, the recombinant fused polypeptides according to the present invention were administered.

adenovirus = assay: Mouse pneumonia model, viral pneumonia; assay type: in vivo; settings: BALB/C mouse pneumonia model, nasal drip; average ± standard deviation
Source text: as §1

Streptococcus pneumoniae = assay: Mouse pneumonia model, bacterial pneumonia; assay type: in vivo; settings: BALB/C mouse pneumonia model, nasal drip; average ± standard deviation
Source text: as §1

Mycoplasma pneumoniae = assay: Mouse pneumonia model, mycoplasma pneumonia; assay type: in vivo; settings: BALB/C mouse pneumonia model, nasal drip; average ± standard deviation
Source text: as §1

Chlamydia pneumoniae = assay: Mouse pneumonia model, chlamydia pneumonia; assay type: in vivo; settings: BALB/C mouse pneumonia model, nasal drip; average ± standard deviation
Source text: as §1

pulmonary infections = assay: Mouse pneumonia model, pneumonia caused by pulmonary infections; assay type: in vivo, BALB/C mice; settings: BALB/C mouse pneumonia model, nasal drip, average ± standard deviation
Source text: as §1

pneumonia fungi = assay: Mouse pneumonia model, fungal pneumonia; assay type: in vivo; settings: BALB/C mouse pneumonia model, nasal drip; average ± standard deviation
Source text: as §1

[1] = test system: SD rats with CCl4-induced hepatic fibrosis; assay: CCl4-induced hepatic fibrosis animal model; assay type: in vivo; settings: 40% CCl4 i.p. twice a week for 8 weeks, fused polypeptides 6 mg/kg s.c. once every five days
Experimental: Modeling was performed on the rats. Each group other than the blank group was injected with 40% CCl4 intraperitoneally twice a week, the first injection was performed at 3 mL/kg, and then injection was performed at 2 mL/kg. Modeling was performed for 8 weeks to induce hepatic fibrosis. After the intraperitoneal injection of CCl4 for the fourth time, the drugs were administered according to Table 3. After induction for 8 weeks, the administration was stopped. The SD rats were dissected the next day, and blood was taken. The liver tissue was stored in a refrigerator at −80° C. for further use. The expression of HYP in the hepatic tissue of rats was detected. [table]

[2] = test system: SD rats with bleomycin-induced pulmonary fibrosis; assay: Bleomycin-induced pulmonary fibrosis animal model; assay type: in vivo; settings: for Survival rate (%): bleomycin 5 mg/kg intratracheal, dosage 10 mg/kg (Table 2), administration cycle 15 days from day 7 after modeling; for content of TGF-β1 in serum, difference from the model group: fused polypeptides 10 mg/kg s.c. once every five days, nintedanib 25 mg/kg intragastric once a day
Experimental: SD rats were anesthetized by intraperitoneal injection of 4% chloral hydrate with a concentration of 1 mL/100 g. After anesthesia, the rats were fixed and their necks were disinfected by using cotton with 75% alcohol. The skin of the rat neck was longitudinally cut with scissors, and the fascia and muscle were longitudinally bluntly torn with tweezers to expose the trachea. A syringe was inserted into the trachea to inject 5 mg/kg bleomycin, while a blank group was injected with an equal amount of normal saline. Then a rat plate was quickly erected and rotated, the rats' breathing was observed, the neck wound was sterilized after rotation and was sewn, and an amoxicillin anti-inflammatory drug was sprinkled on the suture. After the operation, the rats were put back into a dry and clean cage for resting, waiting for awakening. The rats were awakened after about 1-2 hours, and then fed normally. On the 7th day after modeling, modeling group animals randomly fell into a model group, a Nintedanib positive drug group, recombinant fused polypeptide 1, 2, 3 and 4 dosage groups, and a normal control group, and the groups were administered separately for an administration cycle of 15 days. Living situations of rats were observed every day and their weights were weighed. After administration for 15 days, the eyeballs were removed and blood was taken, the rats were dissected, and lungs were taken. The content of TGF-β1 in serum and the content of HYP in lung tissues were detected.

[3] = test system: mice with bleomycin-induced skin fibrosis; assay: Bleomycin-induced skin fibrosis model; assay type: in vivo, C57/BL black mice; settings: C57/BL mice, bleomycin 10 μg/mL s.c. daily for 28 days, 10 mg/kg s.c. once every five days, 6 times, FIG. 6
Experimental: Bleomycin (10 μg/mL) was injected subcutaneously every day for 28 days to form skin fibrosis. During the modeling period, the administration groups were given drugs for treatment. After modeling, the mice were killed on the next day, and the skin tissue of the mouse back was taken to detect the content of HYP in the skin tissue. [table]

[4] = test system: SD rats with renal fibrosis; assay: Renal fibrosis animal model (ureter ligation); assay type: in vivo; settings: 6 mg/kg s.c. once every five days, after 15 days
Experimental: A renal fibrosis animal model was established. SD rats were anesthetized with 4% chloral hydrate, injected with 1 mL/100 g intraperitoneally, fixed to an operation board, and sterilized in an operation area for further use. […] Muscular layers and abdominal walls were sewed layer by layer, the suture was disinfected with alcohol. After SD rats woke up, the rats were put into a cage for feeding. In the blank group, ureter was not ligated, and other steps were the same.
Then, the animals fell into a blank group, a model group, and recombinant fused polypeptide administration groups, and the administration was started on the second day after the operation, and was performed for 15 days. After administration for 15 days, blood was taken and supernatant was taken to detect the content of TGF-β1 in serum.

[5] = test system: mice with myocardial fibrosis; assay: Isoprenaline-induced myocardial fibrosis animal model; assay type: in vivo; settings: BALB/c mice, isoprenaline 5 mg/kg s.c. daily for 7 days, 12 mg/kg s.c. (Table 5), after the 8th day, FIG. 5
Experimental: In the model group, the experimental mice were injected with isoprenaline (ISO) (5 mg/kg) subcutaneously on the back of the mice every day for 7 consecutive days, and the mice were injected with normal saline subcutaneously (200 μL/mouse) every day. In the blank group, normal saline was injected subcutaneously (200 μL/mouse) every day. […] After the 8th day, blood was taken and was centrifuged, the supernatant was taken, and the content of TGF-β1 in serum was detected.

[6] = listed as recombinant fused polypeptide I

Molecule: Penicillin [reference compound]
- Inhibitory effect, Protozoal pneumonia (protozoa): 45.62 ± 5.43
- Inhibitory effect, Viral pneumonia (adenovirus): 50.07 ± 5.12
- Inhibitory effect, Bacterial pneumonia (Streptococcus pneumoniae): 39.21 ± 5.35
- Inhibitory effect, Mycoplasma pneumonia (Mycoplasma pneumoniae): 43.21 ± 4.56
- Inhibitory effect, Chlamydia pneumonia (Chlamydia pneumoniae): 39.13 ± 5.23
- Inhibitory effect, Pneumonia caused by pulmonary infections (pulmonary infections): 45.78 ± 3.65
- Inhibitory effect, Fungal pneumonia (pneumonia fungi): 38.89 ± 2.24

Molecule: COC(=O)c1ccc2c(c1)NC(=O)/C2=C(\Nc1ccc(N(C)C(=O)CN2CCN(C)CC2)cc1)c1ccccc1 [Nintedanib, nintedanib, reference compound]
- content of HYP in liver tissue, difference from the model group ([1]; FIG. 3): highly significantly different from the model group (***P<0.001)
- Survival rate (%) [2]: 85.7%
- content of TGF-β1 in serum, difference from the model group ([2]; bleomycin pulmonary fibrosis, after 15 days, FIG. 2): highly significantly different from the model group (**P<0.01)

B1: PRCWRGEGGGGIVRRADRAAVPGGGGRGDGGGGSGGGGSGGGGSSDKPGGGGTSLDASIIWAMMQNGGGGLSKL (protein)
chain: PRCWRGEGGGGIVRRADRAAVPGGGGRGDGGGGSGGGGSGGGGSSDKPGGGGTSLDASIIWAMMQNGGGGLSKL
notes: Recombinant fused polypeptide X-linker1-Y expressed in 293 cells
- Inhibitory effect, Protozoal pneumonia (protozoa): 54.26 ± 5.32
- Inhibitory effect, Viral pneumonia (adenovirus): 54.68 ± 5.23
- content of HYP in skin tissue, difference from the model group ([3]; listed as recombinant fused polypeptide 1, 10 mg/kg): highly significantly different from the model group (**P<0.01)
- content of HYP in skin tissue, difference from the model group ([3]; listed as recombinant fused polypeptide I, 10 mg/kg): can lower the hydroxyproline content
- Inhibitory effect, Bacterial pneumonia (Streptococcus pneumoniae): 38.43 ± 8.25
- content of HYP in liver tissue, difference from the model group ([1]; FIG. 3, listed as Recombinant fused polypeptide 1): highly significantly different from the model group (***P<0.001)
- content of HYP in liver tissue, difference from the model group ([1]; FIG. 3, listed as recombinant fused polypeptide I): can lower the HYP content
- content of TGF-β1 in serum, difference from the model group ([4]; FIG. 4, listed as recombinant fused polypeptide 1, 6 mg/kg): highly significantly different from the model group (***P<0.001)
- content of TGF-β1 in serum, difference from the model group ([4]; FIG. 4, listed as recombinant fused polypeptide I, 6 mg/kg): can lower the TGF-β1 content
- Inhibitory effect, Mycoplasma pneumonia (Mycoplasma pneumoniae): 38.47 ± 4.35
- Survival rate (%) [2]: 85.7%
- Survival rate (%) ([2]; listed as fused polypeptide 1): equivalent to that of the positive drug group
- hydroxyproline (HYP) content in lung tissue ([2]; bleomycin pulmonary fibrosis, 10 mg/kg s.c. once every five days, after 15 days, FIG. 1): can lower the hydroxyproline content
- content of TGF-β1 in serum, difference from the model group ([2]; bleomycin pulmonary fibrosis, after 15 days, FIG. 2, listed as fused polypeptide 1): highly significantly different from the model group (**P<0.01)
- content of TGF-β1 in serum, difference from the model group ([2]; bleomycin pulmonary fibrosis, after 15 days, FIG. 2, listed as recombinant fused polypeptide I): can lower the TGF-β1 content
- content of TGF-β1 in serum, difference from the model group ([5]; listed as recombinant fused polypeptide 1): significantly different from the model group (**P<0.01)
- content of TGF-β1 in serum, difference from the model group [5, 6]: can lower the TGF-β1 content
- Inhibitory effect, Chlamydia pneumonia (Chlamydia pneumoniae): 39.26 ± 4.66
- Inhibitory effect, Pneumonia caused by pulmonary infections (pulmonary infections): 52.47 ± 4.28
- Inhibitory effect, Pneumonia caused by pulmonary infections (pulmonary infections; [6]): inhibitory effect
- Inhibitory effect, Fungal pneumonia (pneumonia fungi): 49.68 ± 5.74
